Source: the DeepSol protein solubility set

Test: soluble on expression in E. coli; label from the status in PepcDB or PDB records

Sequence | soluble on expression in E. coli
MGSDKIHHHHHHMKFEVASNVLLQHLQLIARVIASRSTLPILESVLFELEGDQLRLTAADMANRMSTELTVNNVGGENGSFAVPERILLEPLKELPDQPISFEINMETKAAEIAYSNGHYSFVVQDVSTYPVAASLSPEAIVSIVPAEALLSGLSATLFATSQDERRPIMTGVYLDFFEDKLVFVGSDGQILVKQEDANVQSRRRSAFCLPRKACLLLRNVLPRLEGDVTLTYDSNYLHIELGNYTLRARLLEGRYPNYNSVIPTSNPFSVKVDRAQLLSGAKRVSIFSNPATSMLRMEFTPAGIRLSANDIDFSVAAEEHVPAECPADINMRIGFKSDVFQTILQGMPSEEVIMTLADQTRAGLILPAENAPGISLCNLLLPMKLIGE | not soluble
LVERDSFVNALRESERRYRNIIETASEGILIIDSEVRISYANKKMTDMLGCPLEEVTGRKMCDFVSEESKDIVKLNQKRRRQGINDSYELKLVCKDGSSLWALVNAKSLFDKDGKFMGSISLLTDIT | not soluble
RSFDTKQEHGISPKPTYSRIKANYFSFGYFVGRVLPYQLFDLSRIPAFKQPAPSKIGQGSVQNIVLIMGESESAAHLKLFGYGRETSPFLTRLSQADFKPIVKQS | not soluble
IAPTVWKLADRSKIYMADLESALHYILRIEVGRFPVLEGQRLVALKKFVAVLAKYFPGRPLVQNFLHSVNEWLKRQKRNKIPYSFFKTALDDRKEGAVLAKKVNWIGCQGSEPHFRGFPCSLWVLFHFLTVQAARQNVDHSQEAAKAKEVLPAIRGYVHYFFGCRDCASHFEQMAAASMHRVGSPNAAVLWLWSSHNRVNARLAGAPSEDPQFPKVQWPPRELCSACHNERLDVPVWDVEATLNFLKAHFSPSNIILDFPA | soluble
MNECGHCSVKVGEESAILTNGKVWHVNHLLCDLCNCRINDGERCVPQNGVILCSECHIKTTRPICKGCGEFIKTNLCEALNSTWHPTCFQCSVCQKPLEVDFHQLPNRMCVHSDCFWDLQLRMIVCKDLPK | not soluble
MGDIEDAPRIISGIGELDRATGGGFVRGSALLVGGDPGIGKSTLLTQAAAALASRGHRIVYVSGEEAVAQIRLRAQRLGVADSPVELAAETNVEDILATIADGKRPDLVILDSIQTLWTDLADSAPGTVTQVRAAAQAMIRYAKSTGAAIVLVGHVTKEGQIAGPRVVEHMVDGVLYFEGEGGHHYRILRTVKNRFGLEHHHHHH | not soluble
MTFEEYQKEAQKTALYPEAYRLVYPALGLAGEAGELANKVKKVLRDHGGRLSEEAREAILAELGDVLWYVAQVATDLGESLEAVAQANLAKLRSRKERGRLGGDGDDR | soluble
MAFVKPILLKSATCLLPRVLKLLFATLKINVGYAGEKLPDDQRGVMFAFWHGKMIAGWLLARRLYPKREISAVVSLSGDGQILSDTLDRLGFHLIRGSSSRGKEVVRRGIGVALSNGGVAAVTPDGPRGPHHRFKYGTLRLAAQHRTPVVFAEISYDNARRLKSWDRFEIPLPFSRVRVTLHVVQVPEFPTEEAFRAWADELSTGFDDALEHHHHHH | not soluble
MKKVFDVWDVETAKRFLEIIKDEPIYYPALIALHTGMRAGEILSLKWCDVNFETRVISIVKSERKNRGLKTVNLKTKTSKRAVYMNDILYKELKNLYEITKPKPDDFVCPRLPTGNLTVNYLSRKFKKLVKKHNFPLIRFHDLRHTFATLMLSLGVNTKIVAEILGHSDIKLTADTYSHVLPTMQEEAMKEFVKLWKLEHHHHHH | soluble
MGSDKIHHHHHHMRGDMLKRELQAYAKEIGIDEFRVTTADPFLVMKQRLMEQQEKGYASGFEEPDLERRTTPALLLEDAVSIIAIAVAYPSKLKDAPRGKEGERRGIFGRSSWGLDYHQALKQRLTLLEEKIQELSPGARSRSMVDTGELVDRAVAERAGIGFSGKNCSIISEEHGSYLYLGELITDQYLPPDESVEELCGSCNKCLDACPTDALIEPGVIDAKRCISFITQTKTLIPEHFRYALGNRLYGCDTCQQVCPYNRKKNATQHSELQPDPEQVKPLLIPLLSLSNREFKSRFGSLSGAWRGKKPIQRNAVCALVHYQDRTALDALRLMAETDQREDMRALAIWAVGRIAGQEAEDYIQKRLLTDSAEDVQVEGNRLLEEWGNGHAI | not soluble
MAGDSTDKAFQNFAYLLFLRNILTKSNFSETKNKPEAYNQFLFQKLKKILNLFQILQFILENIHCKPGDRIAILFAYSNDLDRNVVKNVWNTADFGFYSHFLVFANVRFDVRQEEEILFHYSYLNATSSVFSKLPDSSLGFGNNATGSDSLKTIDVGKFYSNNQVPVCGSIVLILSKRYPNELKILEVSRKVQEHHGIVHVISSVFPSGGTQSKALYKLTSRTNGICAFQEDSQFSEVSDFINISSKYYDGWHLLSHIVGSLPISGTPYPIYSVNPRVSGLGSLVLPSLSVPFSGRFYFVVTVQDHGPIDTFRSINLSWYNAKSRSSNHFLISNGQKYEINREEWFDLDPVIYNMTLNYSYLTFQDIQIRVYSSRPPEDWLPCCDSTN | not soluble
GHMSVYHHILLAVDFSSEDSQVVQKVRNLASQIGARLSLIHVLDNIPMPDTPYGTAIPLDTETTYDAMLDVEKQKLSQIGNTLGIDPAHRWLVWGEPREEIIRIAEQENVDLIVVGSHGRHGLALLLGSTANSVLHYAKCDVLAVRLRDD | soluble
MIYSFRNSGFRDPETGVYNQTYFMEVFNREWHRHIREQQSLALLYLCPHIHETVKQPHLLEFFTKQVQEALLRATDLIARLDHNHFALGLFNIDEEGTEVVLKRIGQHIQDFNQEFGKNHKLKIDYKLAACLCLPTQEQKIESMFNNVSKLSQELERSPQQSQALIKLQ | not soluble
SPLHWLQWERGGVGSDQDLGCHWLPLPTGSDGGDAVEYNPNLLDDPQWPCGKHKRVLIFASYMTTVIEYVKPADLKKDMNETFREKFPHIKLTLSKIRSLKREMRNLSEECSLEPVTVSMAYVYFEKLVLQGKLNKQNRKLCAGACVLLAAKISSDLRKSEVKQLIDKLEERFRFNRKDLIGFEFTVLVALELALYLPENQVLPHYRRLTQQF | not soluble
DAAVTPEERHLSKMQQNGYENPTYKFFEQMQNSGPSSGIEGRGSSGSSGSSGSSGPTPKTELVQKFRVQYLGMLPVDRPVGMDTLNSAIENLMTSSSKEDWPSVNMNVADATVTVISEKNEEEVLVECRVRFLSFMGVGKDVHTFAFIMDTGNQRFECHVFWCEPNAANVSEAVQAAC | soluble
GERLSEAEVLSLFDLPLPELAAAAHEVRLKKTDPEVVTFLIDRNINYTNVCTVACAFCAFYRTKRQKDAYTLSYEEIARKVEELYQVGGRRILMQGGVNPELPLVWYLDLLRYLKSRFPDLRIDAFSPEEILGLERLTGLRAEAILEKLKEAGLDGLPGAGAEILVDEVRLKAAPARIRTADWYRIVDAAQALGLYTLATMVIGFGEGPKERTAHLLGLRAQQDRALERYENGFAAFALWTLQVEHTRLKGKAPGATAHEYLKTLAVARLALDNFAHFQASWPTLGFKVAQAALYYGADDFGSTMLEENVVSAAGGHGRTHATVRQIVRHIVDAGFKPAER | not soluble
MGSDKIHHHHHHMGKKYDVYGVGNALVDIEYEVSPELLQELKIDKGVMTLLDEDSQNHILENLKNLHCHKSCGGSAANTMVAISQLGGKAFYSCKVANDEFGDFYIEDLLNSQVDTNLKNGDRQSGITGKCLVLVTPDADRTMNTFLGITEKFSTQELVSSALADSEYIYIEGYLVTSPTAKEAAIKAREIAEKAGVKTAMSLSDYNMVKFFKDGLLDIIGPGLDLIFANESEALELADTQDFQVAVDKLKTLSKKFAITRGSKGSVVFDGQELIEIAAPQVKAIDTVGAGDMYAGAFLYGITQSMSYEEAGKLASTAASKIVTSYGPRLKTEELKALVSA | not soluble
MATFKDFRNSVKPNWCPGCGDFSVQAAIQRAAANVGLNPDELAVISGIGCSGRISGYINSYGVHSIHGRALPIAQGVKMANRDLTVIASGGDGDGFAIGMGHTIHSIRRNIDITYIVMDNQIYGLTKGQTSPRSEAGFKTKSTPQGSIEPSLNVMEMALTAGATFVAQSFSSDLKELTQIIEAGINHKGFSLINVFSPCVTYNKVNTYDWFKENLTKLSTVEGYDPSNRMMAMQTLMENNGLVTGLIYQNTKQPSYQELVKGYSEEPLVKSDLNMDQKMFDELVAEFM | not soluble
MSLTEYVDAVPAASMTVCTVQHTDTTPQHSINEDRVIPLDSNKGIADMEFGDAHTLAHRVSASAERMYRFSSIETTQFIKILLRKMAARMASLASCHTHVYASSHSLPWDSACEHYIFGMRRILIEGHHHHHH | not soluble
